B1: TPR t1 (parent)
chain: GACCAAUCUGCCCUCAGAGCUCGAGAACAUCUUCGGAUGCAGAGGAGGCAGGCUUCGGUGGCGCGAUAGCGCCAACGUCCUCAACCUCCAAUGCAUCCCACCACAUGAUGAUGCCUGAAGAGCCUUGGUUUUUUG

Variants of: B1
Assay: polymerase ribozyme fitness, log enrichment relative to wild type (log ratio); higher = more active; in vitro selection for triplet polymerase activity
Summary of the method: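 A single round of triplicate in vitro selection, including frozen incubation at −7 °C, was applied to PCR-built, transcribed mutant libraries of each subunit of a heterodimeric triplet polymerase ribozyme. Illumina sequencing of input and output libraries retained genotypes with ≥10 input reads and ≥1 read per output. Fitness is the base-2 logarithm of genotype enrichment divided by wild-type enrichment, from inverse-variance-weighted replicate averages.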

Row | Variant | polymerase ribozyme fitness (log ratio)
1 | G60A U112A G113C | -1.56
2 | A5U G110C | -3.71
3 | G69C C85U C86A | -3.64
4 | C11G C15A G61A U125G | -0.186
5 | G58A A83C | -0.717
6 | C8U G63U C102G C114A U125A | -6.46
7 | C79G C123G | 0.221
8 | G39U G48U A90U | -2.92
9 | C8A C104A G120A | 1.08
10 | C13G A16U C56U A105G A111C | -4.91
11 | A29G U92A | -3.71
12 | G63U G107A | -4.13
13 | G10A C11A G42U G48A A91G C115U | -2.2
14 | C22G G61C C124U U133C | -2.74
15 | A43G G107U G110C A118U C124A | -7.12
16 | C12A C70U U78G | -1.07
17 | A26U C64A C115U | -6.23
18 | C11U C13G A66C C76G A118U C124A U133A | -0.556
19 | G52A G93U G120A | -0.0896
20 | U132C | -0.134
21 | C15U C72A | -1.07
22 | C40A A43U C89U C102U U106C C123A | -6.44
23 | U92A G113U | -3.75
24 | G51C C80G | -1.85

Row | Variant | polymerase ribozyme fitness (log ratio)
25 | C49U C53A C101A G120A | -1.13
26 | C40U U55C C70A U96A | -3.02
27 | U78C A100U U125G | -1.3
28 | C8G A100U C115U | -2.51
29 | C70U C79G C114A | -6.1
30 | A18G U78C G117U C123A C124G | -1.41
31 | C98A C123A | -3.79
32 | G44A U130C | -0.447
33 | A50U G60A C70U G93A | -3.24
34 | C11G G17C U55G C73U | -3.54
35 | A6U C62U | 0.19
36 | A37U G52U C64U C123A C124A | 0.273
37 | C3U C53G U112A | 0.998
38 | C20U G52U C72U | -3.02
39 | C49A G61A G110U U125C | -2.14
40 | A27G G51U G58A U78C A84C | -5.35
41 | A2G C88U | -0.191
42 | G69U U78G U112A | 2.31
43 | C102G G120U | -6.6
44 | C3U U54C G61A A90C | -0.844
45 | C4A A74U | -1.77
46 | C12A A41C U92G A111G | -2.42
47 | G63A C82U | -1.51
48 | U32C A41U C89G G93U | -4.07

Row | Variant | polymerase ribozyme fitness (log ratio)
49 | U30C C72U U87A U112A | -2.41
50 | A66U A90G A91G A103G G107C A121G | -5.84
51 | A121C U131G | 1.12
52 | G47A C123G | 0.634
53 | C89G G113A G127U | -4.45
54 | G61A C82U | 0.141
55 | U9A G65C A111U C123U G128A U133C | -4.71
56 | G19C G120A | -1.56
57 | A5G G69U | 0.484
58 | U96A G110A | -2.45
59 | U9A G17U A74C C82A U87C | -0.851
60 | C40U C97U C102A A111G | -2.88
61 | C3U C124A | 1.2
62 | A2G U87G A95U G110A | -0.979
63 | G19U A43G G47U C76G G113A A119C U131A | -4.34
64 | G42U G71C | -3.19
65 | A74U G110A C115U | -6.32
66 | A43G A108G | -4.26
67 | U78G U87C | 0.411
68 | A27U C70G | -6.31
69 | C56A C86A G120C | 0.246
70 | G69U C101U U126C | -0.166
71 | C12U A37C | -0.693
72 | G60A C115A G117A | -4.99

Row | Variant | polymerase ribozyme fitness (log ratio)
73 | C12G A18U | -1.46
74 | C8U A41U C73A | -0.9
75 | A2C G120U C124A U131G | -1.15
76 | C53G G71A G93C | -1.51
77 | U21C A37G A46C C64G A100C C115U G117C | -7.24
78 | G45C G48U G60A G61A A83C | -3.56
79 | C4A C13U C124A | 0.115
80 | C73U U96A U116G U130A | -3
81 | G10A A29C C124U | -0.613
82 | A74U U129A | -1.52
83 | C13U C56U A121C U130G | 1.59
84 | G61C A91G U112C G122A | -3.24
85 | A50U A74C A84G U112A | -4.89
86 | C8A A37U C124A | 1.28
87 | G52U C72A C86A G113A G122C | -4.85
88 | A103G | -3.07
89 | C20U U109A | -4.34
90 | A26C G35A G61U C98G C124U | -6.78
91 | G10U C11A G36U U78G C115G | -5.09
92 | G10U G17A C56G C62U C79U | -4.53
93 | U55G G60A C89A C114A | -2.87
94 | G19A G48U C49U G69U U78C G93U | -3.08
95 | C49U G57C | -0.696
96 | A18U G120U | -1.46

Row | Variant | polymerase ribozyme fitness (log ratio)
97 | C123A | 0.556
98 | C13G U96C | -2.28
99 | A18U U32A C56A A105C G120C G122A C124A | -4.84
100 | C40U A74C G77U C94U C114G | -2.59
101 | A68G A74G C79A | -4.8
102 | U7G C88G | -0.456
103 | C70A U131A | -1.34
104 | G71A U78C C114G | -5.04
105 | C15U A41C G45A G71C U112A G117A G127C | -4.04
106 | G10C U87C | -1.18
107 | C15A A27C U55G A111U | -6.51
108 | U9A A27C G117C | -5.71
109 | G63A C104U C114G | -4.92
110 | A6G G36A | -0.889
111 | A43C C56G C62G A68G G120A | -7.42
112 | G48A C72U A119U | -0.826
113 | C70U U126G | -3.3
114 | G63U G93U C123U | -1.46
115 | G19U U55G C123A | -4.18
116 | U33G C94G G113A | -5.56
117 | A29G U131C | -1.02
118 | A43G A50C G57U | -2.8
119 | G51A C64G C101G G113A C123A | -6.84
120 | C12U C80U G110A U130C | -0.275

Row | Variant | polymerase ribozyme fitness (log ratio)
121 | A6G C15U C89U U96A | -0.964
122 | U78C A84C G113U G128A | -4.29
123 | G36C G44U A46C A50G G69U U78A C85A C124U | -4.01
124 | C53A C64U C99U U133G | -4.1
125 | C28U A29G C72U U112A C124U | -7.83
126 | U7A G45A C49G G71A C80U A84U C104U | -4.66
127 | C89A | -1.27
128 | C79A U106G | -3.37
129 | C72U U81A A91U A118U | -3.42
130 | C11U U112G | -0.177
131 | U7G C79A C99U | -5.33
132 | G10A A43G A119U | -1.73
133 | G117C A118G | -3.04
134 | C62U U78C A100U | -0.796
135 | A5U G61C | -1.74
136 | C3A G45U G61A C88U A90C G113A | -3.92
137 | C49G G110U | -2.51
138 | A2C U130A | -2.07
139 | G60A C76G | -2.57
140 | A43U C62G C82A C101A C123G | -4.38
141 | A5U G48C | -2.24
142 | A6G U7C A50U C80G U112G | -4.92
143 | C64U G69U G128C | -3.93
144 | G52A G57A G113A | -0.88

Row | Variant | polymerase ribozyme fitness (log ratio)
145 | C49U G117U | -2.67
146 | C4A G10U A84G | -2.55
147 | C64U A84C | 0.992
148 | C34A G47C C82U A91G G120U | -7.66
149 | G110U A119U | -1.65
150 | C8G G45U | -1.39
151 | G113U C124U | -2.48
152 | A84G G113U | -2.8
153 | G58C C86A C115U | -2.72
154 | G10C C70U | -1.63
155 | G48U G69C C86G G113U | -6.36
156 | C11U G48C | -1.61
157 | C15A C123U | -1.1
158 | C12U A26U C28U C72U C123G | -5.39
159 | U59A A105C U112C | -0.41
160 | C8G A29C G48A C70U | -2.95
161 | C22U A83U | -4.1
162 | U96A G117U | -3.63
163 | A43C G47A C56U G57A C62U A103C | -6.45
164 | U55A G117A | -1.34
165 | C3G C73U | -2.12
166 | C11U G61U | -0.841
167 | C13G U78C | -0.825

Source: the RNAGym collection of RNA variant scans (doi:10.1073/pnas.2313332121)
